Assay results taken from patent US20030228309A1 (published 2003).

Key:
[1] = biological target: T1, Biotinylated TRAIL (AM100200-Peprotech) (Homo sapiens (Human), UniProt P50591 114-281, biotinylated (sites not given)); assay: competition ELISA, soluble TR4 (TR4-Fc positive control) competes with plate-captured TR4-Fc for biotinylated TRAIL; assay 1
Experimental: (§1) Goat anti-human Fc was diluted to 0.1 micrograms/ml in coating buffer. The Immulon 4 microplate was coated with 100 microliters per well of the Goat anti-human Fc solution and incubated overnight at 4° C. The coating solution was decanted from the plate, and blocking solution was dispensed at 200 microliters per well. The plate was incubated at room temperature for 1 hour. After the 1 hour incubation period, the blocking solution was decanted from the plate and 1 microgram/mL of TR4-Fc was dispensed at 100 microliters/well and incubated for 2 hours at room temperature. After the incubation, the plate was washed five times manually using a Wheaton manifold.
(§2) Hybridoma supernatants were (previously) prepared in a low binding dilution plate using diluent. The supernatants were prepared in duplicate and were diluted from the stock concentration with 2.5 fold dilutions for the 7 subsequent wells. If a purified form of the antibody was available, the starting concentration was 5 micrograms/mL. The positive control (TR4-Fc) was diluted from 5 micrograms/mL. 100 microliters was transferred into the ELISA plate and pre-incubated for 30 minutes at room temperature. 20 microliters of biotinylated TRAIL was added at 5 micrograms/mL to the 100 gL of the supernatant and mixed. The combined 120 microliters incubated for 2 hours at RT. […]

[2] = biological target: T1, Biotinylated TRAIL (AM100200-Peprotech); assay: competition ELISA, soluble TR4 (TR4-Fc positive control) competes with plate-captured TR4-Fc for biotinylated TRAIL; assay 2
Experimental: as §1, §2

T1 sequence (P50591 114-281 limits assumed): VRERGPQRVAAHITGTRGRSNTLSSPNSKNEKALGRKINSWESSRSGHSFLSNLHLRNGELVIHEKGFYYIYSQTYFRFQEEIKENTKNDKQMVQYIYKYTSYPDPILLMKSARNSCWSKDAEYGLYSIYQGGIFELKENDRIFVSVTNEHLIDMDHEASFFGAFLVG

IC50 [1]: 0.491 µg/mL
IC50 [2]: 0.284 µg/mL
B1: TR4-Fc fusion protein (Fc fusion)
chain: ATIKLHDQSIGTQQWEHSPLGELCPPGSHRSERPGACNRCTEGVGYTNASNNLFACLPCTACKSDEEERSPCTTTRNTACQCKPGTFRNDNSAEMCRKCSTGCPRGMVKVKDCTPWSDIECVHKESGNGHNI
notes: also called TR4 (in the form of Fc fusion protein); not shown: Fc region
